The target of this assay is T1, human MC4R (Homo sapiens, UniProt P32245).
T1 construct: expressed in transfected cells; host or cells: HEK 293T cells, transient transfection with polyethylenimine, co-transfected with CRE-LacZ
The assay is described as follows: LacZ reporter gene assay (MC4R_CRE-LacZ transfected 293T cells). Type of assay: cell-based. The settings on record: for EC50: 10% of the volume added was supernatant of 293T cells transfected with the named construct, antagonism of MC4R (rightward shift), average of 4 trials, read-out: EC50 of NDP-MSH dose response curve in presence of supernatant. The method, then:
Activation of MC4R in vitro results in an increase in cyclic adenosine monophosphate (cAMP)[27]. In our assay upregulation of cAMP increased LacZ expression through a cAMP responsive element.
Activation of the MC4R was determined using LacZ as a reporter gene. DNA was transfected into cells with polyethylenimine. Fifty nanograms of human MC4R and 10 μg of cAMP-responsive element (CRE)-LacZ were transfected into 293T cells on 10cm dishes. Another five 10cm dishes with 293T cells were transfected with 10 μg of respectively pAAV-GFP, pAAV-flAgRP, pAAV-VWF-AgRP83-132 , pAAV-VWF-αMSH1 and pAAV-VWF-αMSH4. One day after transfection the MC4R_CRE-LacZ cells were transferred to poly-L-lysine coated 96-wells plates. Three days after transfection supernatant of 10cm dishes was removed and used for LacZ reporter assay. […] In addition only forskolin was added to other wells as a positive control for CRE-LacZ transfection and the subsequent colometric reaction. The medium of another plate with MC4R_CRE-LacZ transfected cells was replaced with assay buffer containing serial dilutions of conditioned medium from cells transfected with αMSH1, αMSH4 or GFP. […] After 5-6 hour incubation at 37°C the assay medium was removed and replaced by 40 μl lysisbuffer (phosphate buffered saline (PBS) containing 0.1% Triton-X-100). The plates were stored at -20°C. After thawing of the plates, 80 μl of substrate (0.1 M phosphate buffer, pH7.4, containing 1.6 g/l o-nitrophenyl β-D-galactopyranoside (ONPG, Invitrogen, the Netherlands), 67.5 mM β-mercaptoethanol (Merck, Germany) and 1.5 mM magnesium chloride) was added to each well. Absorbance at 405 nm was measured in a Victor^2 microplate reader (PerkinElmer, Brussels, Belgium).
Data were analyzed with GraphPad Prism (GraphPad Software Inc., California). Competition curves were fitted from duplicate data points using sigmoidal dose response curve with variable slope.
A general note: In a reporter assay the amount or activity of a reporter protein is the signal.

One may read the EC50 as the concentration giving half of the maximal effect.

T1 sequence (P32245 whole entry): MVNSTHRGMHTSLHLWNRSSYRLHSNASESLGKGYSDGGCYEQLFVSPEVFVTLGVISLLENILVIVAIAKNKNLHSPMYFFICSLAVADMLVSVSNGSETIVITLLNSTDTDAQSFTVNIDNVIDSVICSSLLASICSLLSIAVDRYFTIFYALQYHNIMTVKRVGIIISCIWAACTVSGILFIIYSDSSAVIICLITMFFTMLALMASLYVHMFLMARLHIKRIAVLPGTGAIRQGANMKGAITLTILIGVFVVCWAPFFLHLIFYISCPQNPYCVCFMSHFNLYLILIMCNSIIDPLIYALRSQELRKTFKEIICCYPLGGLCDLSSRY

With “VWF-AgRP83-132: minigene product: VWF signal peptide, HA tag, furin site and AgRP83-132; tested as supernatant of transfected 293T cells (SPRRCVRLHESCLGQQVPCCDPCATCYCRFFNAFCYCRKLGTATNLCSRT; not fully specified; Secreted furin-released minigene product; VWF signal peptide, HA tag and RKRR furin site left out; The name 83-132 follows human numbering; it equals mouse precursor 82-131, since the printed primer e)”, the EC50 is 500 pM.

B1: flAgRP: supernatant of 293T cells transfected with full length mouse Agouti-related protein construct with normal AgRP signal peptide (protein, UniProt P56473 1-131, looked up)
chain: MLTAMLLSCVLLLALPPTLGVQMGVAPLKGIRRPDQALFPEFPGLSLNGLKKTTADRAEEVLLQKAEALAEVLDPQNRESRSPRRCVRLHESCLGQQVPCCDPCATCYCRFFNAFCYCRKLGTATNLCSRT
modifications: full-length
notes: supernatant of 293T cells transfected with full length mouse Agouti-related protein construct with normal AgRP signal peptide
On to B1, for which the EC50 amounted to 1400 pM. Also, under “50% of the volume added was supernatant of transfected 293T cells”, the “Shift of NDP-MSH dose response curve in presence of supernatant” value is “shifted even further to the right”.

Values taken from PMC2928777, “Neuropeptide delivery to the brain: a von Willebrand factor signal peptide to direct neuropeptide secretion” (BMC Neuroscience, 2010).
